The record followed here is US20040176301A1 (CYCLACEL, published 2004).

The chains are these.
B1: H-His-Bug-Lys-Arg-Arg-Leu-Ile-Phe-NH2 (peptide)
peptide: H-H[Tle]KRRLIF-NH2
SMILES: CC[C@H](C)[C@H](NC(=O)[C@H](CC(C)C)NC(=O)[C@H](CCCNC(=N)N)NC(=O)[C@H](CCCNC(=N)N)NC(=O)[C@H](CCCCN)NC(=O)[C@@H](NC(=O)[C@@H](N)Cc1c[nH]cn1)C(C)(C)C)C(=O)N[C@@H](Cc1ccccc1)C(N)=O
B2: H-His-Abu-Lys-Arg-Arg-Leu-Ile-Phe-NH2 (peptide)
peptide: H-H[Abu]KRRLIF-NH2
SMILES: CC[C@H](NC(=O)[C@@H](N)Cc1c[nH]cn1)C(=O)N[C@@H](CCCCN)C(=O)N[C@@H](CCCNC(=N)N)C(=O)N[C@@H](CCCNC(=N)N)C(=O)N[C@@H](CC(C)C)C(=O)N[C@H](C(=O)N[C@@H](Cc1ccccc1)C(N)=O)[C@@H](C)CC
B3: H-His-Nva-Lys-Arg-Arg-Leu-Ile-Phe-NH2 (peptide)
peptide: H-H[Nva]KRRLIF-NH2
SMILES: CCC[C@H](NC(=O)[C@@H](N)Cc1c[nH]cn1)C(=O)N[C@@H](CCCCN)C(=O)N[C@@H](CCCNC(=N)N)C(=O)N[C@@H](CCCNC(=N)N)C(=O)N[C@@H](CC(C)C)C(=O)N[C@H](C(=O)N[C@@H](Cc1ccccc1)C(N)=O)[C@@H](C)CC
B4: H-His-Ala-Lys-Arg-Arg-Leu-Ile-Dhp-OH (peptide)
peptide: H-HAKRRLI[Dhp]-OH
SMILES: CC[C@H](C)[C@H](NC(=O)[C@H](CC(C)C)NC(=O)[C@H](CCCNC(=N)N)NC(=O)[C@H](CCCNC(=N)N)NC(=O)[C@H](CCCCN)NC(=O)[C@H](C)NC(=O)[C@@H](N)Cc1c[nH]cn1)C(=O)N/C(=C\c1ccccc1)C(=O)O

Numbered stars: 1 amine (or outer) side, 2 acyl side, 3 side chain; on linkers, the order of the positions; unused ones are H or OH. Square brackets hold non-standard residues; d marks the D form. Dhp = dehydrophenylalanine, Z isomer, O=C(/C(=C/c1ccccc1)N[*:1])[*:2]; Phe(ol) = N[C@H](CO)Cc1ccccc1; dPsa = D-O-acetylphenylserine; Phg = N[C@H](C(=O)O)c1ccccc1; Tle = CC(C)(C)[C@H](N)C(=O)O; Psa = O-acetylphenylserine; Nva = CCC[C@H](N)C(=O)O; Abu = CC[C@H](N)C(=O)O; dPse = D-phenylserine Some results are limits rather than exact numbers.

In the first assay the target is T1, CDK2/cyclin A (UniProt P24941 1-298; P20248 1-432). Put plainly: cell-based or functional assay.
On to H-HIKRRLIF-NH2 [H-His-Ile-Lys-Arg-Arg-Leu-Ile-Phe-NH2], for which the “Relative activity, Kinase Inhibition (CDK2/cyclin A kinase assay, pRb substrate, [ATP] = 100 µM)” value is 0.5 relative to H-His-Ala-Lys-Arg-Arg-Leu-Ile-Phe-NH2 (=1). For B1, the “Relative activity, Kinase Inhibition (CDK2/cyclin A kinase assay, pRb substrate, [ATP] = 100 µM)” value was 0.2 relative to H-His-Ala-Lys-Arg-Arg-Leu-Ile-Phe-NH2 (=1).

B2: the “Relative activity, Kinase Inhibition (CDK2/cyclin A kinase assay, pRb substrate, [ATP] = 100 µM)” value was 5 relative to H-His-Ala-Lys-Arg-Arg-Leu-Ile-Phe-NH2 (=1). Same read-out and setting: next, H-H[Phg]KRRLIF-NH2 (also: Phg racemic, mixture of diastereomers) [H-His-Phg-Lys-Arg-Arg-Leu-Ile-Phe-NH2]: < 0.1 relative to H-His-Ala-Lys-Arg-Arg-Leu-Ile-Phe-NH2 (=1); H-HFKRRLIF-NH2 [H-His-Phe-Lys-Arg-Arg-Leu-Ile-Phe-NH2]: 0.5 relative to H-His-Ala-Lys-Arg-Arg-Leu-Ile-Phe-NH2 (=1). Same read-out and setting: next, B3: < 0.1 relative to H-His-Ala-Lys-Arg-Arg-Leu-Ile-Phe-NH2 (=1); H-HGKRRLIF-NH2 [H-His-Gly-Lys-Arg-Arg-Leu-Ile-Phe-NH2]: 0.1 relative to H-His-Ala-Lys-Arg-Arg-Leu-Ile-Phe-NH2 (=1). Still for that read-out and setting: the value for H-HVKRRLIF-NH2 [H-His-Val-Lys-Arg-Arg-Leu-Ile-Phe-NH2] was 2 relative to H-His-Ala-Lys-Arg-Arg-Leu-Ile-Phe-NH2 (=1).

The target of another assay is T1, CDK2/cyclin A. Put plainly: cell-based or functional assay. This is another data set of the same source.
Regarding B4, the “Relative activity, Kinase Inhibition (CDK2/cyclin A kinase assay, pRb substrate, [ATP] = 100 µM)” value was 3.3 relative to H-His-Ala-Lys-Arg-Arg-Leu-Ile-Phe-NH2 (=1). The same measure, in the same setting: the value for H-HSKRRLI[Psa]-OH [H-His-Ser-Lys-Arg-Arg-Leu-Ile-L-Psa-OH] was < 0.1 relative to H-His-Ala-Lys-Arg-Arg-Leu-Ile-Phe-NH2 (=1); that for H-HSKRRLI[dPse]-OH [H-His-Ser-Lys-Arg-Arg-Leu-Ile-D-Pse-OH] was < 0.1 relative to H-His-Ala-Lys-Arg-Arg-Leu-Ile-Phe-NH2 (=1); that for H-HSKRRLI[dPsa]-OH [H-His-Ser-Lys-Arg-Arg-Leu-Ile-D-Psa-OH] was < 0.1 relative to H-His-Ala-Lys-Arg-Arg-Leu-Ile-Phe-NH2 (=1).

For H-HAKRRLI[dPsa]-OH [H-His-Ala-Lys-Arg-Arg-Leu-Ile-D-Psa-OH], the “Relative activity, Kinase Inhibition (CDK2/cyclin A kinase assay, pRb substrate, [ATP] = 100 µM)” value is < 0.1 relative to H-His-Ala-Lys-Arg-Arg-Leu-Ile-Phe-NH2 (=1). The same measure, in the same setting: next, H-HAKRRLI[Phe(ol)] [H-His-Ala-Lys-Arg-Arg-Leu-Ile-Pheol]: 0.6 relative to H-His-Ala-Lys-Arg-Arg-Leu-Ile-Phe-NH2 (=1). Turning to H-HAKRRLI[Psa]-OH [H-His-Ala-Lys-Arg-Arg-Leu-Ile-[L-Psa]-OH], the “Relative activity, Kinase Inhibition (CDK2/cyclin A kinase assay, pRb substrate, [ATP] = 100 µM)” value is 22 relative to H-His-Ala-Lys-Arg-Arg-Leu-Ile-Phe-NH2 (=1).
